T1: rhNaglu (Homo sapiens, UniProt P54802)
T1 construct: The N-terminal 23 amino acids are cleaved as the precursor protein enters the endoplasmic reticulum, resulting in a mature form; made in house; host or cells: human fibrosarcoma HT1080 cell clone over-expressing rhNaglu
T1 sequence (P54802 24-743): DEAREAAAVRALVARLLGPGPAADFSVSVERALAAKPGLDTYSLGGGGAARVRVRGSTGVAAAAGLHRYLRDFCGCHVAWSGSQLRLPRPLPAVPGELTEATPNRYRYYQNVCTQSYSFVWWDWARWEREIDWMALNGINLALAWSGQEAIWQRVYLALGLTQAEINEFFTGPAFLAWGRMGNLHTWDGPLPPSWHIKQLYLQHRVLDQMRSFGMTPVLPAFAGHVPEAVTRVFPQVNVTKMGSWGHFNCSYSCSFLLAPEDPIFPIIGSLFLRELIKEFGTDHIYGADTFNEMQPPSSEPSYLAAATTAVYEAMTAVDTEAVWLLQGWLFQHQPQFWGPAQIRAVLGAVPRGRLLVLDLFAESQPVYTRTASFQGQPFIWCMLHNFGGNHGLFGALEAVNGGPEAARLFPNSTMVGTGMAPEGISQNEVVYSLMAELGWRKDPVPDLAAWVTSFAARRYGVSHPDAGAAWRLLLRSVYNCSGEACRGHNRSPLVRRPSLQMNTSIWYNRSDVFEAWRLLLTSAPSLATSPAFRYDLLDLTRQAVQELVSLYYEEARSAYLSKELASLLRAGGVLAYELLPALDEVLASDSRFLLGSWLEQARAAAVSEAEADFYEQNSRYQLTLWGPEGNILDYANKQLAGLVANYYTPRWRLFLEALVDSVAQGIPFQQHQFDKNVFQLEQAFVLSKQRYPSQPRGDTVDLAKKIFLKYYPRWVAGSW


Legend:
[1] = molecular target: T1, rhNaglu; assay: Naglu activity assay with various inhibitors (4MU-GlcNAc fluorescent substrate); format: biochemical; conditions: added at 0.0625, 0.25, 1, 4 and 8 mM; 37° C., 1 hour, pH 4.5
Experimental: A 10 mM stock of Naglu activity substrate solution was prepared by dissolving 5 mg of substrate, i.e., 4-methylumbelliferyl-N-acetyl-α-D-glucosaminide, in 250 μl of 100% DMSO. Naglu activity assay reaction buffer (0.1 M sodium acetate, 0.5 mg/ml BSA, pH 4.5) was then added to bring the volume up to 1318 μl. This 10 mM substrate stock solution was then diluted 10 fold with reaction buffer to make the final 1 mM substrate solution.
Samples and controls were pre-diluted in reaction buffer. 10 μl of each pre-diluted sample/control were applied in duplicate wells on a black clear bottom 96 well plate. 75 μl of 1 mM substrate solution containing various concentrations of inhibitors were added to each well. The plates were sealed with plate sealer and wrapped with aluminum foil. The plates were then placed in a Boekel Jitterbug Microplate Incubator Shaker (Cole-Parmer, Vernon Hills, Ill.) and shaken (setting at #1) at 37° C. for 1 hour. 200 μl of Stop Buffer (0.2 M Glycine, pH 10.7) were then added to all of the wells and fluorescence emission (excitation/emission at 360 nm/460 nm, respectively) was measured using a SpectraMax® Plus M2 plate reader from Molecular Devices (Sunnyvale, Calif.).
To further confirm that rhNaglu could hydrolyze UDP-GlcNAc, we investigated whether UDP-GlcNAc inhibited the hydrolysis by rhNaglu of the fluorescent substrate 4MU-GlcNAc (4-methylumbelliferyl-N-acetyl-α-D-glucosaminide) in a Naglu activity assay. Briefly, UDP-GlcNAc, as well as GlcNAc, UDP-GalNAc and Glucosamine, were added to the Naglu activity assay at 0.0625, 0.25, 1, 4 and 8 mM concentrations. The fluorescence emitted from these samples was compared to control samples only including rhNaglu and 4MU-GlcNAc.

[2] = molecular target: Soluble cation-independent mannose-6-phosphate receptor (sCI-M6PR); assay: plate-based sCI-M6PR binding ELISA (sCI-M6PR coated, HRP anti-Naglu polyclonal #2957 detection); KD extrapolated from binding curves
[3] = molecular target: T2, CI-M6PR (Homo sapiens, UniProt P11717); assay: Plate based sCI-M6PR binding assay (ELISA)
T2 construct: the secreted sCI-M6PR was purified from the tissue culture medium; made in house
Experimental: (1) Generation of sCI-M6PR (soluble CI-M6PR)—Full length M6PR was expressed in genetically modified tissue culture cells, and the secreted sCI-M6PR was purified from the tissue culture medium using an aminophenyl-M6P conjugated resin (Beljaars et al., 1999). N-terminal sequencing and LC/MS/MS analysis of the obtained protein confirmed the amino acid sequence of the sCI-M6PR, and MALDI analysis confirmed that its molecular mass was 279,492 Da.
100 μl of sCI-M6PR(2.5 μg/ml) in DPBS were coated on MaxiSorp® Nunc-Immuno flat-bottom 96-well plates (Thermo Fisher Scientific, Inc., Sunnyvale, Calif.). After incubation for 1 hour at 37° C., the plates was washed with ELISA wash buffer (0.1% Tween-20 in DPBS). sCI-M6PR coated wells were blocked with 300 μl ELISA blocking buffer (DPBS, 2% BSA, 0.05% Tween 20) at 37° C. for 1 hour. Appropriate dilutions of sGNPT-modified Naglu-Kif (and rhNaglu as control) were made in blocking buffer and added to the wells. After 1 hour incubation at 37° C., the plates were washed with ELISA wash buffer, and 100 μl of HRP-conjugated rabbit anti-Naglu polyclonal antibody #2957 diluted in blocking buffer were added. After 1 hour incubation at 37° C., the plates was washed again with ELISA wash buffer. The ELISA was developed using TMB peroxidase substrate solution (KPL, Inc., Gaithersburg, Mass.) by following the manufacturer's protocol.
sGNPT transfers the phospho-GlcNAc group from UDP-GlcNAc to mannose sugar, and the resulting mannose-6-phosphate-GlcNAc is called the Capped-M6P. During the normal intracellular glycosylation process, the decapping enzyme (N-acetylglucosamine 1-phosphodiester α-N-acetyglucosaminidase) removes the GlcNAc from the Capped-M6P, to generate M6P. But without decapping, the Capped-M6P can also bind to CI-M6PR. Capped-M6P binds to domain 5 of CI-M6PR rather than to domain 3 or 9, as M6P does (Bohnsack et al. 2009). The amount of Capped-M6P on Naglu-Kif can be indirectly evaluated using a CI-M6PR plate binding assay. In this binding assay the affinity with which Naglu-Kif bound to CI-M6PR increased in proportion to the amount of sGNPT used (35 μg, 70 μg and 140 (corresponding to about 4.2 μM) (green, red and empty circle in FIG. 8, respectively)) to modify Naglu-Kif and thus the extent of Capped-M6P found on Naglu-Kif (FIG. 8). […] These binding reactions were repeated in two different buffer systems, i.e., in a sodium acetate buffer (40 mM NaAc pH 6.5, 10 mM MnCl2, 10 mM MgCl2) and in a Tris buffer (50 mM Tris pH 7.4, 10 mM MnCl2, 10 mM MgCl2), which gave similar results. Contrary to Naglu-Kif, rhNaglu was not phosphorylated by sGNPT under the same conditions due to the lack of high-mannose glycans.

Molecule | inhibition of rhNaglu activity toward 4MU-GlcNAc [1] | Kd [2] [nM] | also measured
N[C@H]1C(O)O[C@H](CO)[C@@H](O)[C@@H]1O (stereo partly drawn) [glucosamine] | not inhibited |  | 
CC(=O)N[C@H]1C(O)O[C@H](CO)[C@@H](O)[C@@H]1O (stereo partly drawn) [GlcNAc, N-acetylglucosamine] | Inhibition |  | 
Naglu-Kif (high-mannose-containing recombinant human Naglu) modified in vitro with 70 µg sGNPT (from UniProt P54802 24-743) (enzyme) |  | 5.92 | 
uridine diphosphate N-acetyl galactosamine [UDP-GalNAc] | not inhibited |  | 
Naglu-Kif (high-mannose-containing recombinant human Naglu) modified in vitro with 140 µg sGNPT (from UniProt P54802 24-743) (enzyme) |  | 1.48 | 
Naglu-Kif (high-mannose-containing recombinant human Naglu) modified in vitro with 35 µg sGNPT (from UniProt P54802 24-743) (enzyme) |  | 15.3 | 
Naglu-Kif: high-mannose-containing recombinant human Naglu purified from HT1080 cells grown with 2 mg/l Kifunensine; tested after sGNPT modification (protein) DEAREAAAVRALVARLLGPGPAADFSVSVERALAAKPGLDTYSLGGGGAARVRVRGSTGVAAAAGLHRYLRDFCGCHVAWSGSQLRLPRPLPAVPGELTEATPNRYRYYQNVCTQSYSFVWWDWARWEREIDWMALNGINLALAWSGQEAIWQRVYLALGLTQAEINEFFTGPAFLAWGRMGNLHTWDGPLPPSWHIKQLYLQHRVLDQMRSFGMTPVLPAFAGHVPEAVTRVFPQVNVTKMGSWGHFNCSYSCSFLLAPEDPIFPIIGSLFLRELIKEFGTDHIYGADTFNEMQPPSSEPSYLAAATTAVYEAMTAVDTEAVWLLQGWLFQHQPQFWGPAQIRAVLGAVPRGRLLVLDLFAESQPVYTRTASFQGQPFIWCMLHNFGGNHGLFGALEAVNGGPEAARLFPNSTMVGTGMAPEGISQNEVVYSLMAELGWRKDPVPDLAAWVTSFAARRYGVSHPDAGAAWRLLLRSVYNCSGEACRGHNRSPLVRRPSLQMNTSIWYNRSDVFEAWRLLLTSAPSLATSPAFRYDLLDLTRQAVQELVSLYYEEARSAYLSKELASLLRAGGVLAYELLPALDEVLASDSRFLLGSWLEQARAAAVSEAEADFYEQNSRYQLTLWGPEGNILDYANKQLAGLVANYYTPRWRLFLEALVDSVAQGIPFQQHQFDKNVFQLEQAFVLSKQRYPSQPRGDTVDLAKKIFLKYYPRWVAGSW |  |  | Kd ([3]; Naglu-Kif modified with 35 μg sGNPT): 15.3 nM; Kd ([3]; Naglu-Kif modified with 70 μg sGNPT): 5.92 nM; Kd ([3]; Naglu-Kif modified with 140 sGNPT (about 4.2 μM)): 1.48 nM

Reference: patent publication US20170267986A1, “GENERATION OF MANNOSE-6-PHOSPHATE CONTAINING RECOMBINANT ALPHA-N-ACETYL GLUCOSAMINIDASE” (SHIRE HUMAN GENETIC THERAPIES, INC., priority 2014, published 2017)
